In US20220363757A1 (SYMPHOGEN A S, published 2022):

B1: Fab fragment of antibody 15532 (Fab, V domains shown, not shown: a dimerising Fc or GST)
VH: QVQLQQWGAGLLRPSETLSLTCAVYGESFSGYYWNWIRQPPGKGLEWIGEINHSGSTNYNPSLKSRVTISVDTSKTQFSLKLSSVTAADTAVYYCARGWDLLDWNDYWNEYWGQGTLVTVSS
VL: EIVLTQSPATLSLSPGERATLSCRASQSVSSYLAWYQQKPGQAPRLLIYDASNRATGIPARFSGSGSGTDFTLTISSLEPEDFAVYYCQQRSNWPLTFGGGTKVEIKR
notes: monomeric Fab made by GingisKHAN digestion of the IgG1
B2: Fab fragment of antibody 15431 (Fab, V domains shown, not shown: a dimerising Fc or GST)
VH: QVQLQQSGPGLVKPSQTLSLTCAISGDSVSSNSAAWNWIRQSPSRGLEWLGRTYYRSKWYNDYAVSVKSRITINPDTSKNQFSLQLNSVTPEDTAVYYCARDDDWNDFDYWGQGTLVTVSS
VL: EIVLTQSPATLSLSPGERATLSCRASQSVSSYLAWYQQKPGQAPRLLIYDASNRATGIPARFSGSGSGTDFTLTISSLEPEDFAVYYCQQRSNWPLTFGGGTKVEIKR
notes: as for B1
B3: Fab fragment of antibody 15011 (Fab, V domains shown, not shown: a dimerising Fc or GST)
VH: EVQLLESGGGLVQPGGSLRLSCAASGFDFRSYAMMWVRQAPGKGLEWVGGINGEVGGSNTYYAPAVKGRATISRDNSKNTLYLQMNSLRAEDTAVYYCVKGAGACGICNDDIDAWGQGTLVTVSS
VL: SYELTQDPAVSVALGQTVRITCSGAGSYAGSYYYGWHQQKPGQAPVTVIYDNDKRPSNIPDRFSGSSSGNTASLTITGAQAEDEADYYCGSTNDNDDGGLFGSGTKVTVLG
notes: as for B1
B4: Fab fragment of antibody 15572 (Fab, V domains shown, not shown: a dimerising Fc or GST)
VH: QLQLQESGPGLVKPSETLSLTCTVSGDSISSSSYYWGWIRQPPGKGLEWIGSIFYSGNTYYNPSLKSRVTISVDTSKNQFSLKLSSVTAADTAVYYCAREDDFLTDYYGAFDIWGQGTMVTVSS
VL: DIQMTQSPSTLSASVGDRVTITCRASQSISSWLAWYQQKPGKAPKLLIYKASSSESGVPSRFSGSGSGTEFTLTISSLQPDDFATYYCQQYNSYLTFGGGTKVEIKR
notes: as for B1

Key:
Assay in all cases: SPR, Fab over captured mutant LAG-3-Fc;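 note: fc fusion variants captured on anti-human IgG Fc sensor, Fab injected with association then dissociation phases, KD obtained from Langmuir one-to-one fit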
[1] = biological target: T1, human LAG-3 domain 1-2 Fc fusion, point mutation #43 P96A (human, UniProt P18627 23-266)
T1 construct: not shown: human IgG1 Fc, AA P101-K330
T1 sequence: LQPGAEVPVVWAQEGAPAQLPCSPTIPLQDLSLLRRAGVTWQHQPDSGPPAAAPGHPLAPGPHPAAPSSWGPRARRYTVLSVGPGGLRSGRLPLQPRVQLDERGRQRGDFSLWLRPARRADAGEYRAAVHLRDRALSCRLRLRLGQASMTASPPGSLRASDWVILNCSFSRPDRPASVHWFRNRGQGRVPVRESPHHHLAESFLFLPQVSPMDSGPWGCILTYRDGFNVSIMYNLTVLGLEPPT

[2] = biological target: T2, human LAG-3 domain 1-2 Fc fusion, point mutation #48 V101A (human, UniProt P18627 23-266)
T2 construct: not shown: human IgG1 Fc, AA P101-K330
T2 sequence: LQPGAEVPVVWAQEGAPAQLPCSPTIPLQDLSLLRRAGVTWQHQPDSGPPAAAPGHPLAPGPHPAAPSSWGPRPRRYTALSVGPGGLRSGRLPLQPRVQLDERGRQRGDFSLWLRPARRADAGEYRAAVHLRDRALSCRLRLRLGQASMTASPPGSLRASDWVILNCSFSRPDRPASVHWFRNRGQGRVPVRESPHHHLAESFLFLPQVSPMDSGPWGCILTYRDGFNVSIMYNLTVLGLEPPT

[3] = biological target: T3, human LAG-3 domain 1-2 Fc fusion, point mutation #52 G108A (human, UniProt P18627 23-266)
T3 construct: not shown: human IgG1 Fc, AA P101-K330
T3 sequence: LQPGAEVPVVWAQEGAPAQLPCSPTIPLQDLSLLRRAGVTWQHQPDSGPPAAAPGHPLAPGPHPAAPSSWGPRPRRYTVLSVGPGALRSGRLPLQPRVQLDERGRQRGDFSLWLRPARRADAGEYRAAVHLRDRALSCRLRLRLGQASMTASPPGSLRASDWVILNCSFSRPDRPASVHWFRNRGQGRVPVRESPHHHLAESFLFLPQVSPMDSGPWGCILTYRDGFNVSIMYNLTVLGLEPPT

[4] = biological target: T4, human LAG-3 domain 1-2 Fc fusion, point mutation #69 R129A (human, UniProt P18627 23-266)
T4 construct: not shown: human IgG1 Fc, AA P101-K330
T4 sequence: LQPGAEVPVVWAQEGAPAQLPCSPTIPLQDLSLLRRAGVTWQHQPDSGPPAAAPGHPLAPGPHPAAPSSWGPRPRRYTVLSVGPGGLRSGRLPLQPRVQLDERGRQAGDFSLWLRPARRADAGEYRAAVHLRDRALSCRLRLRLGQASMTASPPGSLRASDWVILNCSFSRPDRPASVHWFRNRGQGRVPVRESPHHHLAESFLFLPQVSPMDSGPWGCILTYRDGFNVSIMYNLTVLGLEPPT

[5] = biological target: T5, human LAG-3 domain 1-2 Fc fusion, point mutation #79 S159A (human, UniProt P18627 23-266)
T5 construct: not shown: human IgG1 Fc, AA P101-K330
T5 sequence: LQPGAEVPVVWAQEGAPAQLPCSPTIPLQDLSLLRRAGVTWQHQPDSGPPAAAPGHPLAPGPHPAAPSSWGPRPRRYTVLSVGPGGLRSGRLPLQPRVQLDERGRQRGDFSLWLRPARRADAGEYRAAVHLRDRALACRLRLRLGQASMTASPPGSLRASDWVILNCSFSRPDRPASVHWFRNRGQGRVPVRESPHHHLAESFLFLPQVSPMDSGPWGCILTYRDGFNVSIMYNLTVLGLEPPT

[6] = biological target: T6, human LAG-3 domain 1-2 Fc fusion, point mutation #16 H65A (human, UniProt P18627 23-266)
T6 construct: not shown: human IgG1 Fc, AA P101-K330
T6 sequence: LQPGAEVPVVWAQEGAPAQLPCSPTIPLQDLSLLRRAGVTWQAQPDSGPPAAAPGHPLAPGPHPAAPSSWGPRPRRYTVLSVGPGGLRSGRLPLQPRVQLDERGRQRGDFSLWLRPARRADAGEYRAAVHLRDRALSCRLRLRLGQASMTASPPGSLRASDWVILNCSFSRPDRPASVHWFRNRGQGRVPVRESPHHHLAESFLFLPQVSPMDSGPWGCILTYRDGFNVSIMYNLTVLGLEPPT

[7] = biological target: T7, human LAG-3 domain 1-2 Fc fusion, point mutation #28 A81S (human, UniProt P18627 23-266)
T7 construct: not shown: human IgG1 Fc, AA P101-K330
T7 sequence: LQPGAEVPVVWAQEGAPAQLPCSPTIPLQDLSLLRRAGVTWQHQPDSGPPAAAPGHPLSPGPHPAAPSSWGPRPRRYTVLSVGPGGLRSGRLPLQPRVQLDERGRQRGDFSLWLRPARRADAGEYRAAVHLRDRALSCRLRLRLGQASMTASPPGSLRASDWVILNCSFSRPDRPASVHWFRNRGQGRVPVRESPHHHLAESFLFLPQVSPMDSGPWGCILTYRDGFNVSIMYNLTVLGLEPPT

[8] = biological target: T8, human LAG-3 domain 1-2 Fc fusion, point mutation #30 G83A (human, UniProt P18627 23-266)
T8 construct: not shown: human IgG1 Fc, AA P101-K330
T8 sequence: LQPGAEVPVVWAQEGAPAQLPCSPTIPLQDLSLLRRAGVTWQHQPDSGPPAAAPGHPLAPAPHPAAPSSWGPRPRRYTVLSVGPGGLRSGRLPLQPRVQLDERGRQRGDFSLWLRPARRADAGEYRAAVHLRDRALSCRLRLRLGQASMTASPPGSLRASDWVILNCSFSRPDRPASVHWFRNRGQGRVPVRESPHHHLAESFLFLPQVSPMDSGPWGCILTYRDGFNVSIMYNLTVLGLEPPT

[9] = biological target: T9, human LAG-3 domain 1-2 Fc fusion, point mutation #41 P94A (human, UniProt P18627 23-266)
T9 construct: not shown: human IgG1 Fc, AA P101-K330
T9 sequence: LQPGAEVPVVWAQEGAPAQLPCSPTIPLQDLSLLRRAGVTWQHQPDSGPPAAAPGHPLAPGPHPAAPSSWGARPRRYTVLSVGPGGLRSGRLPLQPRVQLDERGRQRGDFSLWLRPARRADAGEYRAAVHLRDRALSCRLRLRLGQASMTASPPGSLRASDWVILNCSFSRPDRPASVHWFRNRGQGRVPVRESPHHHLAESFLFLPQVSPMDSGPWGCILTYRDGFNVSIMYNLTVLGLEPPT

Binder	KD mutant/KD wild type [1] [fold]	KD mutant/KD wild type [2] [fold]	KD mutant/KD wild type [3] [fold]	KD mutant/KD wild type [4] [fold]	KD mutant/KD wild type [5] [fold]	KD mutant/KD wild type [6] [fold]	KD mutant/KD wild type [7] [fold]	KD mutant/KD wild type [8] [fold]	KD mutant/KD wild type [9] [fold]	binding result [1]	binding result [2]	binding result [4]	binding result [6]	binding result [9]
B1	1.4	3.5	1	3	0.7	3.8	0.6	1.1	0.8	–	–	–	–	–
B2	–	–	0.3	–	0.9	–	0.6	0.5	–	no binding (tested: 300 nM)	no binding (tested: 300 nM)	no binding (tested: 300 nM)	no binding (tested: 300 nM)	no binding (tested: 300 nM)
B3	0.6	0.5	0.5	0.7	0.7	0.5	0.8	0.7	0.7	–	–	–	–	–
B4	–	–	0.4	–	0.3	–	0.6	0.5	0.6	no binding (tested: 300 nM)	no binding (tested: 300 nM)	no binding (tested: 300 nM)	no binding (tested: 300 nM)	–
